{
  "source": "the nanobody polyreactivity screen of Harvey et al. (2022)",
  "assay": "yeast display, Sf9 membrane polyspecificity reagent, FACS + sequencing; frameworks hold sequencing errors",
  "procedure,_shortened": "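Using colony PCR, genes from sorted yeast display clones were amplified, then sequenced on MiSeq at 2 × 250 and filtered by CDR length. The clones had been stained with 10% biotinylated, detergent-solubilized Sf9 membrane reagent for 1 hour at 4 °C and sorted by FACS into low and high (top ~1%) gates on anti-HA and streptavidin fluorescence. Polyreactivity labels come from the gate of origin.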",
  "data": [
    {"sequence": "QVQLVESGGGLVQAGGSLRLSCAASGSNFDSYAMGWYRQAPGKERVLVAAITRSSVSTYYADSVKGRFTISRDNAKYTVYLQMNSLKPEDTAVYYCAAEDEWSLLYLWFGEYDYWGQGTQVTVSS", "values": [
      {"measurement": "polyreactivity (PSR sort gate)", "value": "low polyreactivity"}
    ]},
    {"sequence": "QVQLVESGGGLVQAGGSLRLSCAASGSNFDYYTMGWYRQAPGKERELVAAISRSGGSTRYADSVKGRFTISRDNAKNTVYLQMNSLKPEDTGVSYCAAGARQGVYRGGDYWGQGTQVTVSS", "values": [
      {"measurement": "polyreactivity (PSR sort gate)", "value": "low polyreactivity"}
    ]},
    {"sequence": "QVQLVESGGGLVQAGGSLRLSCAASGSNFGPNAMGWYRQAPGKERELVAAIRSNGGRTYYADSVKGRFTISRDNAKNTVYLQMNRLKPEDTAVYYCAAPHYPYDTPYGYWGHGTQVTVSS", "values": [
      {"measurement": "polyreactivity (PSR sort gate)", "value": "low polyreactivity"}
    ]},
    {"sequence": "QVQLVESGGGLVQAGGSLRLSCAASGSNFGSYTMGWYRQAPGKERELDAAITSGGGNTYYADSVKGRFTISRDNAKNTVYLQMNSLKPEDTAVYYCNATVRGRNALGRVQKYYYWGQGTQVTVSS", "values": [
      {"measurement": "polyreactivity (PSR sort gate)", "value": "high polyreactivity"}
    ]},
    {"sequence": "QVQLVESGGGLVQAGGSLRLSCAASGSNFGYYAMGWYRQAPGKERELVAAISWRGGSTYYADSVTGRFTISRDNAKNTVYLQMNSLTPEDTAVYDCAAPVGNYGSFDYWGQGTQVTVSS", "values": [
      {"measurement": "polyreactivity (PSR sort gate)", "value": "low polyreactivity"}
    ]},
    {"sequence": "QVQLVESGGGLVQAGGSLRLSCAASGSNFHGNAMGWSRQAPGKERELVAAISQSGDSTYYADSVKGRFTISRDNAKNTVYLQMNSLKPEDTAVYYCAARSGYRGYYHFYYWGQGTQVTVSS", "values": [
      {"measurement": "polyreactivity (PSR sort gate)", "value": "high polyreactivity"}
    ]},
    {"sequence": "QVQLVESGGGLVQAGGSLRLSCAASGSNFIGYAMGWYRQEPGKERELVAAISNSGGRTYYADSVKGRFTISRDNAKNTVYLQMNSLKPEDTAVYYCNVAYRIPYRMDYWGQGTQVTVSS", "values": [
      {"measurement": "polyreactivity (PSR sort gate)", "value": "high polyreactivity"}
    ]},
    {"sequence": "QVQLVESGGGLVQAGGSLRLSCAASGSNFINNAMGWYRQAPGKERELVAAISGNADRTYYADSVKGRFTISRDNAKNTLYLQMNSLKPEETAVYYCNKGYGVYYTFGSWGQGTQVTVSS", "values": [
      {"measurement": "polyreactivity (PSR sort gate)", "value": "low polyreactivity"}
    ]},
    {"sequence": "QVQLVESGGGLVQAGGSLRLSCAASGSNFNIKAIGWYRQAPGKERELVATIPSGGTTSSADSVNGRFTISRDNAKNTVYLQMNSLKPEDTAVYYCYAEIYPIVKAGRHHRRRYDYWGQATQVTVSS", "values": [
      {"measurement": "polyreactivity (PSR sort gate)", "value": "low polyreactivity"}
    ]},
    {"sequence": "QVQLVESGGGLVQAGGSLRLSCAASGSNFNNNAMGWYRQAPGKERELVASISLSAGSTYYADSVKGRFTISRDNAKNTVYLQMNSLKPEDTAVYYCAAEVGYWGYQISGDYWGQGTQVTVSS", "values": [
      {"measurement": "polyreactivity (PSR sort gate)", "value": "low polyreactivity"}
    ]},
    {"sequence": "QVQLVESGGGLVQAGGSLRLSCAASGSNFNYNDMGWSRQAPGKERELVAAIDSSGTSTYYADSVKGRFTISRDNAKNTVYLQMNSLKPEDTAVYYCNADSSLGFGYWGQGTQVTVSS", "values": [
      {"measurement": "polyreactivity (PSR sort gate)", "value": "low polyreactivity"}
    ]},
    {"sequence": "QVQLVESGGGLVQAGGSLRLSCAASGSNFQRYTMGWYSQAPGKERELVAAITSRSGRTYYADSVKGRFTISRDNAKNTVYLQMNSLKPEDTAVYYCATVPYDQTRGYKYDYWGQGTQVTVSS", "values": [
      {"measurement": "polyreactivity (PSR sort gate)", "value": "high polyreactivity"}
    ]},
    {"sequence": "QVQLVESGGGLVQAGGSLRLSCAASGSNFQVYAMGWYRQAPGKERELVATIRRTGGSTYYADSVKGRFTISRDNAKNTVYLQMNSLKPEDTAVYYCAARTYGGYVLRLDYWGQGTQVTVSS", "values": [
      {"measurement": "polyreactivity (PSR sort gate)", "value": "high polyreactivity"}
    ]},
    {"sequence": "QVQLVESGGGLVQAGGSLRLSCAASGSNFRNNAMGWYRQAPGKERELVASISSSGDSTYADSVKGRFTISRDNAMITVYLQMNSLKPEDTAVYYCARDYLSPYAVDYWGQGTQVTVSS", "values": [
      {"measurement": "polyreactivity (PSR sort gate)", "value": "low polyreactivity"}
    ]},
    {"sequence": "QVQLVESGGGLVQAGGSLRLSCAASGSNFRPYAMGWYRPAPGKERELVAAISYRGGSTYYADSVKGRFTISRDNAKNTVYLQMNSLKPEDTAVYYCAADSREEGDYWGQGTQVTVSS", "values": [
      {"measurement": "polyreactivity (PSR sort gate)", "value": "low polyreactivity"}
    ]},
    {"sequence": "QVQLVESGGGLVQAGGSLRLSCAASGSNFRRNAMGWYRQAPGKERELVAAISSNGGSTYYADSVKGRFTISRDNAKNTVYLQLNSLKPEDSAVYYCNALGRVRYSPRYGYDYWGQGTQVTVSS", "values": [
      {"measurement": "polyreactivity (PSR sort gate)", "value": "high polyreactivity"}
    ]},
    {"sequence": "QVQLVESGGGLVQAGGSLRLSCAASGSNFRVYAMGWYRQAPGKERELVAAISSSGVRTSYADSVKGRFTISRDIAKNTVYLQMNSLKPEDTSVYYCADRYPYGYYHWGQGTQVTVSS", "values": [
      {"measurement": "polyreactivity (PSR sort gate)", "value": "high polyreactivity"}
    ]}
  ]
}
